Measured values reported in patent publication US20220332804A1 (CSL INNOVATION, published 2022).
Positions count from the first letter of the chain named.

Experiments:
Test in all cases: SPR, antibody captured, C2 as analyte;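 further: biacore SPR at 37 °C, anti-C2 mAbs captured via goat anti-human IgG on CM5 chips, double-referenced sensorgrams fit to a 1:1 kinetic or steady-state model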
human C2 P704A = biological target: T1, human C2 P704A (human, UniProt P06681 21-752)
T1 sequence: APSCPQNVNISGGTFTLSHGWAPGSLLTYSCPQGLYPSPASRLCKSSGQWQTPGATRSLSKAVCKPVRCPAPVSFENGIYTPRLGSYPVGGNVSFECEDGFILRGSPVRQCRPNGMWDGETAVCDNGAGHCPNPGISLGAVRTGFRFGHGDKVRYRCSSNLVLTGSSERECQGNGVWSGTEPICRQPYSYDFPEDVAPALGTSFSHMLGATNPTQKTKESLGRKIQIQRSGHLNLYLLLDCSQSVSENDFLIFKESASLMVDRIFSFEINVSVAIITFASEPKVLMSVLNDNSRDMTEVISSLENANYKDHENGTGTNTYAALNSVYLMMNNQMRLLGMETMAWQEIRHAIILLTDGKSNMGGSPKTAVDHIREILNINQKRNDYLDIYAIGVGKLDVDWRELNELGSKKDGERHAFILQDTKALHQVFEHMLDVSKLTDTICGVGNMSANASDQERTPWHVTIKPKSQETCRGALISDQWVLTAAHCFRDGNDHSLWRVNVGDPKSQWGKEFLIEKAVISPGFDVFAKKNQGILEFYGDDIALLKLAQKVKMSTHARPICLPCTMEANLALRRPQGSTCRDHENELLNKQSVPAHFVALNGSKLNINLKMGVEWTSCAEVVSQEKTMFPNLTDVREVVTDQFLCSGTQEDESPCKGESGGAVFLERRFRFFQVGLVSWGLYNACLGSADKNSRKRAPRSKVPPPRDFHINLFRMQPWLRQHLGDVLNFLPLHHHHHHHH

human C2 S713A = biological target: T2, human C2 S713A (human, UniProt P06681 21-752)
T2 sequence: T1 sequence with A684P, S693A

human C2 Q447A = biological target: T3, human C2 Q447A (human, UniProt P06681 21-752)
T3 sequence: T1 sequence with Q427A, A684P

human C2 S456A = biological target: T4, human C2 S456A (human, UniProt P06681 21-752)
T4 sequence: T1 sequence with S436A, A684P

B1: RF16-226 (antibody, human IgG4 S228P, lambda)
heavy: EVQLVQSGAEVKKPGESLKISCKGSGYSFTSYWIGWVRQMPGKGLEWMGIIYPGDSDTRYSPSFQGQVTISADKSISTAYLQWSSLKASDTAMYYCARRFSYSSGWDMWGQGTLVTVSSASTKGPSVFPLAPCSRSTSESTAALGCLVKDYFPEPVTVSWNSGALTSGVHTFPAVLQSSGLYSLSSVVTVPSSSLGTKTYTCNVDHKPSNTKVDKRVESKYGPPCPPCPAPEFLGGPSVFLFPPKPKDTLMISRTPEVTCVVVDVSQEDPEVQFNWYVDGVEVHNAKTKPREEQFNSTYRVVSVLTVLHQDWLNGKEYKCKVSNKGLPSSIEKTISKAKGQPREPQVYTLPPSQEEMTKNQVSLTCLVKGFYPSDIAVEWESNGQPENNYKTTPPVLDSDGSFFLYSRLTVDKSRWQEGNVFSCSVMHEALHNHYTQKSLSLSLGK
light: SYELTQPPSVSVSPGQTARITCSGDALTSKYVAWYQQKSGLAPLLVIYEDTRRPSGIPAKFSGSSSGSVATLTISGAHGDDEADYYCYSTDASGHQRVFGGGTKLTVLSQPKAAPSVTLFPPSSEELQANKATLVCLISDFYPGAVTVAWKADGSPVKAGVETTKPSKQSNNKYAASSYLSLTPEQWKSHRSYSCQVTHEGSTVEKTVAPTECS
notes: pH-dependent anti-C2 antibody from a phage display library; also called WT
Kd (human C2 P704A): 120 nM | Kd (human C2 S713A): 19 nM | Kd (human C2 Q447A): 5.4 nM | Kd (human C2 S456A): 71.8 nM
